Results on one molecule are retold here after article PMC12575849, “Condensation-dependent interactome of a chromatin remodeler underlies tumor suppressor activities” (Nature Communications, 2025).

The assay addresses unmodified nucleosome (recombinant human histone octamer on Widom 601 DNA) (human, UniProt P04908 1-130; O60814 1-126; P68431 1-136; P62805 1-103). In words: native gel or EMSA; purified CHD1 titrated against 5 nM IR dye-conjugated nucleosome in EMSA buffer (10 mM HEPES pH 8.0, 75 mM NaCl, 5 mM MgCl2, 10% glycerol, 1 mM DTT, 0.1 mg/ml BSA), 30 min at 30 °C, native PAGE; shifted fraction fitted to a dose-response curve. The conditions noted are these: both partners purified. (In general: In EMSA bound probe runs differently from free probe, usually more slowly.)

B1: recombinant CHD1^ΔNC protein (domain or fragment)
chain: EEEFETIERFMDCRIGRKGATGATTTIYAVEADGDPNAGFEKNKEPGEIQYLIKWKGWSHIHNTWETEETLKQQNVRGMKKLDNYKKKDQETKRWLKNASPEDVEYYNCQQELTDDLHKQYQIVERIIAHSNQKSAAGYPDYYCKWQGLPYSECSWEDGALISKKFQACIDEYFSRNQSKTTPFKDCKVLKQRPRFVALKKQPSYIGGHEGLELRDYQLNGLNWLAHSWCKGNSCILADEMGLGKTIQTISFLNYLFHEHQLYGPFLLVVPLSTLTSWQREIQTWASQMNAVVYLGDINSRNMIRTHEWTHHQTKRLKFNILLTTYEILLKDKAFLGGLNWAFIGVDEAHRLKNDDSLLYKTLIDFKSNHRLLITGTPLQNSLKELWSLLHFIMPEKFSSWEDFEEEHGKGREYGYASLHKELEPFLLRRVKKDVEKSLPAKVEQILRMEMSALQKQYYKWILTRNYKALSKGSKGSTSGFLNIMMELKKCCNHCYLIKPPDNNEFYNKQEALQHLIRSSGKLILLDKLLIRLRERGNRVLIFSQMVRMLDILAEYLKYRQFPFQRLDGSIKGELRKQALDHFNAEGSEDFCFLLSTRAGGLGINLASADTVVIFDSDWNPQNDLQAQARAHRIGQKKQVNIYRLVTKGSVEEDILERAKKKMVLDHLVIQRMDTTGKTVLHTGSAPSSSTPFNKEELSAILKFGAEELFKEPEGEEQEPQEMDIDEILKRAETHENEPGPLTVGDELLSQFKVANFSNMDEDDIELEPERNSKNWEEIIPEDQRRRLEEEERQKELEEIYMLPRMRNCAKQISFNGSEGRRSRSRRYSGSDSDSISEGKRPKKRGRPRTIPRENIKGFSDAEIRRFIKSYKKFGGPLERLDAIARDAELVDKSETDLRRLGELVHNGCIKALKDSSSGTERTGGRLGKVKGPTFRISGVQVNAKLVISHEEELIPLHKSIPSDPEERKQYTIPCHTKAAHFDIDWGKEDDSNLLIGIYEYGYGSWEMIKMDPDLSLTHKILPDDPDKKPQAKQLQTRADYLIKLLSRDLAKKEALSGAGSSKRRKARAKKNKA
As to B1, the Kd (usually the equilibrium constant for the complex coming apart) was 6.3 nM.
